Measured values: publication PMC3287209 (Nucleic Acids Research, 2012)

What was measured:
crystal structure = target: the molecule itself; test: crystal structure
XLF wild-type = XLF wild-type (human, UniProt Q9H9Q4 1-299); test: native gel or EMSA

B1: XLF^1–224 (domain or fragment)
chain: MEELEQGLLMQPWAWLQLAENSLLAKVFITKQGYALLVSDLQQVWHEQVDTSVVSQRAKELNKRLTAPPAAFLCHLDNLLRPLLKDAAHPSEATFSCDCVADALILRVRSELSGLPFYWNFHCMLASPSLVSQHLIRPLMGMSLALQCQVRELATLLHMKDLEIQDYQESGATLIRDRLKTEPFEENSFLEQFMIEKLPEACSIGDGKPFVMNLQDLYMAVTTQ
stoichiometry N (crystal structure): 2

B2: XRCC4^1–157 (domain or fragment)
chain: MERKISRIHLVSEPSITHFLQVSWEKTLESGFVITLTDGHSAWTGTVSESEISQEADDMAMEKGKYVGELRKALLSGAGPADVYTFNFSKESCYFFFEKNLKDVSFRLGSFNLEKVENPAEVIRELICYCLDTIAENQAKNEHLQKENERLLRDWND
binding result (XLF wild-type): binds
